Target: T1, human epidermal growth factor receptor (EGFR) on A431 cells (human, UniProt P00533 25-1210)
T1 construct: whole, on cells; The target is presented on fixed A431 cells
Assay: ELISA on fixed A431 cells, anti-human Fc-HRP detection, SigmaPlot fit
Procedure: A431 cells in a concentration of 4×10⁵ cell/ml were seeded in Corning CellBIND 96-well plate for 16-24 h before assay. After PBS wash, the A431 cells were fixed with BD CytoFix fixation buffer for 15-20 min at room temperature. After fixation and PBS wash procedure, the A431 cells were blocked with StartingBlock blocking buffer for 30 min at 37° C. Plates were washed three times with PBST wash buffer and incubated with the indicated concentrations of dAb-D2-hFc and VH-dAb-D2×4-Ig in 50 ul StartingBlock blocking buffer on ice for 1.5 h. Wells were washed three times with PBST wash buffer. After washing, the plate was incubated with HRP-conjugated anti-human Fc antibody diluted 1:10,000 in StartingBlock blocking buffer on ice for 1 hour. Plates were washed and incubated with TMB. Absorbance at 450 nm was read on a microplate reader.

B1: VH-dAb-D2×4-Ig tetrameric antibody (antibody, V domains shown)
V domain 1: QVQLLESGGGLVQPGGSLRLSCAASGYRFNSEAMGWVRQAPGKGLEWVSSINMRGGSTYYADSVKGRFTISRDNSKNTLYLQMNSLRAEDTAVYYCATVPRSMWWAGLTAKPIRYWGQGTLVTVSS
V domain 2: QVQLLESGGGLVQPGGSLRLSCAASGYRFNSEAMGWVRQAPGKGLEWVSSINMRGGSTYYADSVKGRFTISRDNSKNTLYLQMNSLRAEDTAVYYCATVPRSMWWAGLTAKPIRYWGQGTLVTVSS
notes: also called tetravalent antibody; tetravalent fusion protein; not shown: CH1, CH2 and CH3 of human IgG; CL of human IgG
- Kd: ~6 nM

Reference: patent US20130171174A1 (INDUSTRIAL TECHNOLOGY RESEARCH INSTITUTE, published 2013)
